Entries after “also recorded” stand apart in the source; their conditions may differ.

The values that follow come from patent publication US6034053A, “EGF-isoflavone conjugates for the prevention of restenosis” (Wayne Hughes Institute, priority 1998, dated 2000).

The subject of test [1] is vascular injury-induced neointimal hyperplasia. Nature of the test: Murine restenosis model: photoactivated rose bengal vascular injury of the femoral artery, histomorphometric analysis. The test is classed as in vivo, C57B1/6 mice. The settings on record: for Stenosis Index (Mean ± SE), neointima/media ratio in areas of maximum neointimal hyperplasia, 2 weeks: 2 weeks after injury, EGF-Gen or unconjugated EGF 0.1 mg/kg/dose twice daily for 14 days; for Effect on neointimal hyperplasia / neointima formation (in words): injured femoral arteries, EGF-Gen at less than 5% of the highest nontoxic dose. As for the experimental part: Three to four week old C57 B1/6 male mice (Taconic, Germantown, N.Y.) were housed in micro-isolator cages on a 12-hour day/night cycle and kept for 2 weeks on the Paigen's cocoa butter diet of 15.8% fat, 1.25% cholesterol and 0.5% sodium cholate (Harlan Teklad, Madison, Wis., U.S.A.) to induce high plasma cholesterol levels similar to those of patients with lipid disorders.
Mice were injected with 300 microliters of a 3 mg/ml photoactivated rose bengal solution (Aldrich, Milwaukee, Wis.) in sterile PBS via the tail vein and anesthetized with ketamine/xylazine solution (100 mg ketamine/kg and 5 […]). Photoactivation of rose bengal using percutaneous irradiation with a green light source (300 Watt Xenon arced lamp equipped with a 550 nanometer broad band interference filter, Oriel Scientific, Stratford, Conn.) was performed on the shaved left leg by placing a 3.2 mm glass fiber optic light guide directly into the left femoral vein/artery for 10 minutes. The unirradiated right femoral artery served as an internal control.
Following irradiation the mice were treated for either 14 days or 28 days with intraperitoneal injections of (1) EGF-Gen conjugate or unconjugated EGF (modified EGF not conjugated to genistein) at a dose level of 0. I mg/kg/dose once in the morning and once in the evening; or (2) 2 mg/kg/dose of unconjugated genistein or derivatives of 6,7-dimethoxyquinizalone dissolved in 10% DMSO once per day; or (3) with PBS.
At the times indicated, the animals were euthanized with ketamine/xylazine and perfused with PBS followed by 4% phosphate buffered formalin. PBS and formalin were pumped through the left ventricle of the heart and allowed to exit through a 3 mm incision through the interior wall of the right ventricle. The brain, thymus, heart, lung, liver, pancreas, kidney, spleen, intestine, stomach, muscle, skin adrenal, and testes were collected for pathological evaluation. For histopathological studies, tissues were fixed in 10% neutral buffered formalin, dehydrated and embedded in paraffin by routine methods. Tissue blocks containing the femoral artery/vein were excised and post-fixed in 4% phosphate buffered formalin overnight and processed for hemotoxylin and eosin (H&E) or Masson's trichrome staining. Glass slides were affixed with 6 micron tissue sections and were stained with hematoxylin and eosin or Masson's trichrome. Serial sections were examined for areas of maximum neointimal hyperplasia for which the ratios of neointima/media (stenosis index) were determined. This was necessary to compensate for angular differences among specimens. A Pixera camera (Pixera Corp., Calif., USA) was used for image capture and the NIH image 1.61(Rasband et al., 1995, Microbeam Analysis Soc. J. 4:137-149) program was used for histo-morphometric analysis.
All numeric data are shown as mean±SEM. Statistical analysis between groups was performed by Mann-Whitney t-test or Fisher's exact test using Instat, GraphPad Software, San Diego, Calif. Cumulative percentage plots were analyzed using Wilcoxon statistics by Statview, Abacus Concepts, Inc., Berkeley, Calif.
Vascular injury was induced in C57B1/6 mice as described for Example 2. Following irradiation, the mice were treated for either 14 days or 28 days with intraperitoneal injections of (1) EGF-Gen or unconjugated EGF (modified EGF not conjugated to genistein) at a dose level of 0.1 mg/kg/dose, once in the morning and once in the evening. For 14 day treatment, this dose represents a cumulative total dose level of 2.8 mg/kg and 2% of the highest nontoxic cumulative dosed tested in toxicity studies (Uckun et al., 1998, Clinical Cancer Res 5:1125-1134). For 28 day treatment, this dose represents a cumulative total dose level of 5.6 mg/kg and 4% of the highest nontoxic cumulative dosed tested in toxicity studies. Control animals were injected with 2 mg/kg/dose of unconjugated genistein or derivatives of 6, 7-dimethoxyquinizalone dissolved in 10% DMSO once per day or with PBS. […]

The test system of test [2] is breast cancer cells. The settings on record: U.S. patent application Ser. No. 08/602,186; cited from earlier work.
Test [3] relates to vascular smooth muscle cells (VSMC). In words: Migration of VSMC through Matrigel matrix-coated Boyden chambers. In kind it is cell-based. The settings on record: for Effect on migration of VSMC (in words): EGF-gen 0.25, 0.5, 1 μg/ml or EGF 1 μg/ml, overnight. The protocol: Migration of VSMC through Matrigel™ matrix was performed as described above for Example 4.
FIGS. 7A-7E show the morphological features of migrated VSMC incubated with 0.25 μg/ml (FIG. 7B), 0.5 μg/ml (FIG. 7C), or 1 μg/ml (FIG. 7D) of EGF-gen or with 1 μg/ml EFG (FIG. 7E), overnight. The control (FIG. 7A) was untreated. The cells were then trypsinized and processed for the migration assay using Matrigel™ matrix-coated boyden chambers. Cells migrated through the matrigel and were counted and expressed as % of controls. FIG. 7F is a bar graph showing the dose dependent inhibition of migration by EGF-Gen.

B1: EGF-Gen: rhEGF linked via the photoreactive cross-linker Sulfo-SANPAH to genistein at its C7 hydroxyl group (conjugate, UniProt P01133 23-1207, looked up)
Pro-epidermal growth factor: PQHWSCPEGTLAGNGNSTCVGPAPFLIFSHGNSIFRIDTEGTNYEQLVVDAGVSVIMDFHYNEKRIYWVDLERQLLQRVFLNGSRQERVCNIEKNVSGMAINWINEEVIWSNQQEGIITVTDMKGNNSHILLSALKYPANVAVDPVERFIFWSSEVAGSLYRADLDGVGVKALLETSEKITAVSLDVLDKRLFWIQYNREGSNSLICSCDYDGGSVHISKHPTQHNLFAMSLFGDRIFYSTWKMKTIWIANKHTGKDMVRINLHSSFVPLGELKVVHPLAQPKAEDDTWEPEQKLCKLRKGNCSSTVCGQDLQSHLCMCAEGYALSRDRKYCEDVNECAFWNHGCTLGCKNTPGSYYCTCPVGFVLLPDGKRCHQLVSCPRNVSECSHDCVLTSEGPLCFCPEGSVLERDGKTCSGCSSPDNGGCSQLCVPLSPVSWECDCFPGYDLQLDEKSCAASGPQPFLLFANSQDIRHMHFDGTDYGTLLSQQMGMVYALDHDPVENKIYFAHTALKWIERANMDGSQRERLIEEGVDVPEGLAVDWIGRRFYWTDRGKSLIGRSDLNGKRSKIITKENISQPRGIAVHPMAKRLFWTDTGINPRIESSSLQGLGRLVIASSDLIWPSGITIDFLTDKLYWCDAKQSVIEMANLDGSKRRRLTQNDVGHPFAVAVFEDYVWFSDWAMPSVMRVNKRTGKDRVRLQGSMLKPSSLVVVHPLAKPGADPCLYQNGGCEHICKKRLGTAWCSCREGFMKASDGKTCLALDGHQLLAGGEVDLKNQVTPLDILSKTRVSEDNITESQHMLVAEIMVSDQDDCAPVGCSMYARCISEGEDATCQCLKGFAGDGKLCSDIDECEMGVPVCPPASSKCINTEGGYVCRCSEGYQGDGIHCLDIDECQLGEHSCGENASCTNTEGGYTCMCAGRLSEPGLICPDSTPPPHLREDDHHYSVRNSDSECPLSHDGYCLHDGVCMYIEALDKYACNCVVGYIGERCQYRDLKWWELRHAGHGQQQKVIVVAVCVVVLVMLLLLSLWGAHYYRTQKLLSKNPKNPYEESSRDVRSRRPADTEDGMSSCPQPWFVVIKEHQDLKNGGQPVAGEDGQAADGSMQPTSWRQEPQLCGMGTEQGCWIPVSSDKGSCPQVMERSFHMPSYGTQTLEGGVEKPHSLLSANPLWQQRALDPPHQMELTQ
modifications: Pro-epidermal growth factor genistein via Sulfo-SANPAH cross-linker
As for B1, the “Stenosis Index (Mean ± SE), neointima/media ratio in areas of maximum neointimal hyperplasia, 2 weeks” value in test [1] (i.p.) stood at 0.0±0.0. The “Mice with neointimal hyperplasia detected, 2 weeks after vascular injury” value in test [1] (i.p. 0.1 mg/kg/dose twice daily, 0.1 mg/kg) is recorded as “none of the 5; also recorded: none of the five”. The “Stenosis Index (Mean ± SE), neointima/media ratio in areas of maximum neointimal hyperplasia, 4 weeks” value in test [1] (4 weeks after injury, i.p., EGF-Gen 0.1 mg/kg/dose twice daily for 28 days, Gen or quinazolines 2 mg/kg/dose once per day in 10% DMSO) stood at 0.59±0.16. Moreover, the “Mice with neointima detected, 4 weeks post injury” value in test [1] (4 weeks, i.p. 0.1 mg/kg/dose twice daily) is recorded as “all of the 24”. Also, the “Effect on neointimal hyperplasia / neointima formation (in words)” value in test [1] was “significantly reduced the magnitude of neointimal hyperplasia”; in test [1] (listed as EGF-Genistein), “suppressed migration of myofibroblasts into the mural thrombus and the formation of neointima”. In addition, the “Potency of the conjugate relative to unconjugated Genistein” value in test [2] is given as 1000 fold. The “Effect on migration of VSMC (in words)” value in test [3] is “inhibited the migration of VSMC in a dose dependent fashion”. In test [3] (overnight incubation, then Matrigel migration assay), the “Concentration giving complete cessation of in vitro migration of VSMC” value came out at 1 µg/mL.

B2: EGF: unconjugated EGF (modified EGF not conjugated to genistein) (protein, UniProt P01133 23-1207, looked up)
Pro-epidermal growth factor: PQHWSCPEGTLAGNGNSTCVGPAPFLIFSHGNSIFRIDTEGTNYEQLVVDAGVSVIMDFHYNEKRIYWVDLERQLLQRVFLNGSRQERVCNIEKNVSGMAINWINEEVIWSNQQEGIITVTDMKGNNSHILLSALKYPANVAVDPVERFIFWSSEVAGSLYRADLDGVGVKALLETSEKITAVSLDVLDKRLFWIQYNREGSNSLICSCDYDGGSVHISKHPTQHNLFAMSLFGDRIFYSTWKMKTIWIANKHTGKDMVRINLHSSFVPLGELKVVHPLAQPKAEDDTWEPEQKLCKLRKGNCSSTVCGQDLQSHLCMCAEGYALSRDRKYCEDVNECAFWNHGCTLGCKNTPGSYYCTCPVGFVLLPDGKRCHQLVSCPRNVSECSHDCVLTSEGPLCFCPEGSVLERDGKTCSGCSSPDNGGCSQLCVPLSPVSWECDCFPGYDLQLDEKSCAASGPQPFLLFANSQDIRHMHFDGTDYGTLLSQQMGMVYALDHDPVENKIYFAHTALKWIERANMDGSQRERLIEEGVDVPEGLAVDWIGRRFYWTDRGKSLIGRSDLNGKRSKIITKENISQPRGIAVHPMAKRLFWTDTGINPRIESSSLQGLGRLVIASSDLIWPSGITIDFLTDKLYWCDAKQSVIEMANLDGSKRRRLTQNDVGHPFAVAVFEDYVWFSDWAMPSVMRVNKRTGKDRVRLQGSMLKPSSLVVVHPLAKPGADPCLYQNGGCEHICKKRLGTAWCSCREGFMKASDGKTCLALDGHQLLAGGEVDLKNQVTPLDILSKTRVSEDNITESQHMLVAEIMVSDQDDCAPVGCSMYARCISEGEDATCQCLKGFAGDGKLCSDIDECEMGVPVCPPASSKCINTEGGYVCRCSEGYQGDGIHCLDIDECQLGEHSCGENASCTNTEGGYTCMCAGRLSEPGLICPDSTPPPHLREDDHHYSVRNSDSECPLSHDGYCLHDGVCMYIEALDKYACNCVVGYIGERCQYRDLKWWELRHAGHGQQQKVIVVAVCVVVLVMLLLLSLWGAHYYRTQKLLSKNPKNPYEESSRDVRSRRPADTEDGMSSCPQPWFVVIKEHQDLKNGGQPVAGEDGQAADGSMQPTSWRQEPQLCGMGTEQGCWIPVSSDKGSCPQVMERSFHMPSYGTQTLEGGVEKPHSLLSANPLWQQRALDPPHQMELTQ
modifications: Pro-epidermal growth factor
For the molecule B2, the “Stenosis Index (Mean ± SE), neointima/media ratio in areas of maximum neointimal hyperplasia, 2 weeks” value in test [1] (i.p.) is listed as 0.63 ± 0.20; in test [1] (i.p., listed as unconjugated EGF) it was 0.63±0.20. Also, the “Mice with neointimal hyperplasia detected, 2 weeks after vascular injury” value in test [1] (i.p. 0.1 mg/kg/dose twice daily) is on record as 6 of 8. Besides, in test [1], the “Effect on neointimal hyperplasia / neointima formation (in words)” value is recorded as “ineffective”. The “Effect on migration of VSMC (in words)” value in test [3] is reported as “significantly promoted the migration”.
